Data taken from the supplement of paper PMC10567573.

B1: RSPH3 (parent)
chain: QRLEEQERRHREEKERRKKQQWEI

Variants of: B1
Assay: protein stability index of a GFP-peptide fusion (GPS, HEK-293T) (PSI 1-6); higher = more stable
Settings: c terminus: a fixed tail appended
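Note: lentivirally expressed fusions sorted by FACS into six bins by GFP to DsRed ratio, PSI derived from sequencing read proportions per bin multiplied by bin number.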

Variant	protein stability index
QRLEEQERRHREEKERRKKQQWEA [I24A]	5
QRLEEQERRHREEKERRKKQQWEC [I24C]	4.48
QRLEEQERRHREEKERRKKQQWVI [E23V]	3.18
QRLEEQERRHREEKERRKKQQWAI [E23A]	3.51
QRLEEQERRHREEKERRKKQQWFI [E23F]	3.42
QRLEEQERRHREEKERRKKQQWCI [E23C]	4.03
QRLEEQERRHREEKERRKKQQWHI [E23H]	4.39
QRLEEQERRHREEKERRKKQQWYI [E23Y]	4.09
QRLEEQERRHREEKERRKKQQWQI [E23Q]	3.95
QRLEEQERRHREEKERRKKQQWII [E23I]	3.6
QRLEEQERRHREEKERRKKQQWMI [E23M]	4.2
QRLEEQERRHREEKERRKKQQWKI [E23K]	4.42
QRLEEQERRHREEKERRKKQQWSI [E23S]	3.9
QRLEEQERRHREEKERRKKQQWWI [E23W]	3.67
QRLEEQERRHREEKERRKKQQWTI [E23T]	3.96
QRLEEQERRHREEKERRKKQQWLI [E23L]	4.21
QRLEEQERRHREEKERRKKQQWPI [E23P]	4.26
QRLEEQERRHREEKERRKKQQWGI [E23G]	4.46
QRLEEQERRHREEKERRKKQQWNI [E23N]	4.19
QRLEEQERRHREEKERRKKQQWDI [E23D]	4.91
QRLEEQERRHREEKERRKKQQWRI [E23R]	4.69
QRLEEQERRHREEKERRKKRQWEI [Q20R]	4.12
QRLEEQERRHREEKERRKKLQWEI [Q20L]	4.35
QRLEEQERRHREEKERRKKVQWEI [Q20V]	3.64

Variant	protein stability index
QRLEEQERRHREEKERRKKFQWEI [Q20F]	4.19
QRLEEQERRHREEKERRKKEQWEI [Q20E]	4.8
QRLEEQERRHREEKERRKKAQWEI [Q20A]	4.34
QRLEEQERRHREEKERRKKNQWEI [Q20N]	4.56
QRLEEQERRHREEKERRKKHQWEI [Q20H]	4.16
QRLEEQERRHREEKERRKKPQWEI [Q20P]	4.68
QRLEEQERRHREEKERRKKSQWEI [Q20S]	4.8
QRLEEQERRHREEKERRKKKQWEI [Q20K]	4.22
QRLEEQERRHREEKERRKKCQWEI [Q20C]	4.77
QRLEEQERRHREEKERRKKIQWEI [Q20I]	4.6
QRLEEQERRHREEKERRKKWQWEI [Q20W]	4.36
QRLEEQERRHREEKERRKKGQWEI [Q20G]	4.65
QRLEEQERRHREEKERRKKDQWEI [Q20D]	4.94
QRLEEQERRHREEKERRKKMQWEI [Q20M]	3.86
QRLEEQERRHREEKERRKKYQWEI [Q20Y]	4.19
QRLEEQERRHREEKERRKKQQCEI [W22C]	5.21
QRLEEQERRHREEKERRKKQQEEI [W22E]	5.75
QRLEEQERRHREEKERRKKQQDEI [W22D]	5.52
QRLEEQERRHREEKERRKKQQFEI [W22F]	4.97
QRLEEQERRHREEKERRKKQQTEI [W22T]	5.67
QRLEEQERRHREEKERRKKQQKEI [W22K]	5
QRLEEQERRHREEKERRKKQQLEI [W22L]	5.22
QRLEEQERRHREEKERRKKQQHEI [W22H]	4.97
QRLEEQERRHREEKERRKKQQREI [W22R]	5.43

Variant	protein stability index
QRLEEQERRHREEKERRKKQQMEI [W22M]	4.88
QRLEEQERRHREEKERRKKQQVEI [W22V]	5.34
QRLEEQERRHREEKERRKKQQGEI [W22G]	5.48
QRLEEQERRHREEKERRKKQQPEI [W22P]	4.64
QRLEEQERRHREEKERRKKQQIEI [W22I]	4.38
QRLEEQERRHREEKERRKKQQNEI [W22N]	5.52
QRLEEQERRHREEKERRKKQQSEI [W22S]	5.35
QRLEEQERRHREEKERRKKQQAEI [W22A]	5.13
QRLEEQERRHREEKERRKKQQQEI [W22Q]	5.15
QRLEEQERRHREEKERRKKQQYEI [W22Y]	4.88
QRLEEQERRHREEKERRKKQGWEI [Q21G]	4.61
QRLEEQERRHREEKERRKKQMWEI [Q21M]	4.02
QRLEEQERRHREEKERRKKQAWEI [Q21A]	4.43
QRLEEQERRHREEKERRKKQSWEI [Q21S]	3.71
QRLEEQERRHREEKERRKKQIWEI [Q21I]	4.03
QRLEEQERRHREEKERRKKQWWEI [Q21W]	4.48
QRLEEQERRHREEKERRKKQKWEI [Q21K]	4.71
QRLEEQERRHREEKERRKKQLWEI [Q21L]	4.53
QRLEEQERRHREEKERRKKQTWEI [Q21T]	4.68
QRLEEQERRHREEKERRKKQVWEI [Q21V]	4.01
QRLEEQERRHREEKERRKKQHWEI [Q21H]	4.39
QRLEEQERRHREEKERRKKQRWEI [Q21R]	4.46
QRLEEQERRHREEKERRKKQFWEI [Q21F]	4.46
QRLEEQERRHREEKERRKKQPWEI [Q21P]	4.6

Variant	protein stability index
QRLEEQERRHREEKERRKKQYWEI [Q21Y]	4.52
QRLEEQERRHREEKERRKKQNWEI [Q21N]	4.67
QRLEEQERRHREEKERRKKQDWEI [Q21D]	5.22
QRLEEQERRHREEKERRKKQEWEI [Q21E]	5.39
QRLEEQERRHREEKERRKKQCWEI [Q21C]	4.17
QRLEEQERRHREEKERRKSQQWEI [K19S]	4.77
QRLEEQERRHREEKERRKWQQWEI [K19W]	3.89
QRLEEQERRHREEKERRKVQQWEI [K19V]	4.59
QRLEEQERRHREEKERRKTQQWEI [K19T]	4.87
QRLEEQERRHREEKERRKDQQWEI [K19D]	4.98
QRLEEQERRHREEKERRKFQQWEI [K19F]	4.02
QRLEEQERRHREEKERRKEQQWEI [K19E]	4.98
QRLEEQERRHREEKERRKHQQWEI [K19H]	4.36
QRLEEQERRHREEKERRKYQQWEI [K19Y]	4.47
QRLEEQERRHREEKERRKNQQWEI [K19N]	4.59
QRLEEQERRHREEKERRKQQQWEI [K19Q]	4.64
QRLEEQERRHREEKERRKGQQWEI [K19G]	4.33
QRLEEQERRHREEKERRKRQQWEI [K19R]	4.78
QRLEEQERRHREEKERRKPQQWEI [K19P]	4.62
QRLEEQERRHREEKERRKMQQWEI [K19M]	4.79
QRLEEQERRHREEKERRKIQQWEI [K19I]	4.08
QRLEEQERRHREEKERRKLQQWEI [K19L]	4.59
